Experiments:
Assay in all cases: SPR, antibody on GLC chip, SIRP as analyte
SIRP-α cynomolgus = biological target: T1, SIRP-α cynomolgus (cynomolgus, UniProt A0A2K5VYQ9 31-148)
T1 construct: Soluble analyte in SPR; also called cynomologous monkey SIRP-α
T1 sequence: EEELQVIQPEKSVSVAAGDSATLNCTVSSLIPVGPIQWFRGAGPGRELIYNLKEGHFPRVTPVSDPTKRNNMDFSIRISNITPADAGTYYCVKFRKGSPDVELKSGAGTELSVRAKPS
Procedure: (§1) The running buffer was PBS pH 7.4 with 0.01% TWEEN-20 (PBST+). All analytes were used at their nominal concentrations as determined by A280 absorbance and using their molar calculated extinction coefficient. Analytes were injected in a “one-shot” kinetic mode as described (see, e.g., Bravman et al., Anal. Biochem. 2006, 358, 281-288).
(§2) For the method using a GLC chip, the analytes were injected and flowed over anti-SIRPα antibodies immobilized (˜1000 RUs) on GLC chips using Proteon Amine Coupling Kit. For the immobilization step, the GLC chip was activated with EDAC/Sulpho-NHS 1:1 (Biorad) diluted 1/100 for 300 s at 25 μL/min. Anti-SIRPα antibodies were diluted to 80 nM concentration in 10 mM sodium acetate buffer pH 4.5 and immobilized to the chip at 30 μL/min for 50 s. Chip was inactivated with ethanolamine for 300 s at 25 μL/min. The analytes (e.g., SIRP-α from different species, SIRP-β, SIRP-γ) were injected in a “one-shot” kinetic mode at nominal concentrations of 100, 33, 11, 3.7, 1.2, and 0 nM. Association times were monitored for 90 s at 100 uL/min, and dissociation times were monitored for 1200 s. The surfaces were regenerated with a 2:1 v/v blend of Pierce IgG elution buffer/4M NaCl.
(§3) Biosensor data were double-referenced by subtracting the interspot data (containing no immobilized protein) from the reaction spot data (immobilized protein) and then subtracting the response of a buffer “blank” analyte injection from that of an analyte injection. Double-referenced data were fit globally to a simple Langmuir model and the KD value was calculated from the ratio of the apparent kinetic rate constants (KD=kd/kₐ).

SIRP-α human v2 = biological target: T2, SIRP-α human v2 (human, UniProt P78324 31-149, limits assumed)
T2 construct: Soluble analyte in SPR
Procedure: as §1, §2, §3

Human SIRPβ = biological target: T3, Human SIRPβ (human, UniProt O00241 30-148)
T3 construct: Soluble analyte in SPR
Procedure: as §1, §2, §3

SIRP-α mouse BL6 = biological target: T4, SIRP-α mouse BL6 (mouse (BL6), UniProt P97797 32-150, limits assumed)
T4 construct: Soluble analyte in SPR
T4 sequence (looked up): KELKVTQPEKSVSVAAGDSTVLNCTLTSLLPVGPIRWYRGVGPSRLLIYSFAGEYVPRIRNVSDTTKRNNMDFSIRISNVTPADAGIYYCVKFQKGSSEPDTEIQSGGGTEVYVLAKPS
Procedure: as §1, §2, §3

Human SIRPγ = biological target: T5, Human SIRPγ (human, UniProt Q9P1W8 29-147, limits assumed)
T5 construct: Soluble analyte in SPR
Procedure: as §1, §2, §3

T3 sequence (O00241 30-148): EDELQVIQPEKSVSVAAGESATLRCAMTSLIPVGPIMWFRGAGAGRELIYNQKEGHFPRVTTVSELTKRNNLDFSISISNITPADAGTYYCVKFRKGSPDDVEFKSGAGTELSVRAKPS
T5 sequence (Q9P1W8 29-147 limits assumed): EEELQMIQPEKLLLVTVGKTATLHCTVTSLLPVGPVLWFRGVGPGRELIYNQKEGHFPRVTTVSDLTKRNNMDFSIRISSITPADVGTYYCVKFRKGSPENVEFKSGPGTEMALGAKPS
T2 sequence (P78324 other isoform, or with tags, fused parts or gaps limits assumed): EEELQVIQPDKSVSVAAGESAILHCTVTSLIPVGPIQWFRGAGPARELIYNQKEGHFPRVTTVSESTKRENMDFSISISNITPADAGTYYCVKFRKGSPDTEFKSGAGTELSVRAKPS

Kd (SIRP-α cynomolgus): 0.13 nM | Kd (SIRP-α human v2): 0.018 nM | Kd (Human SIRPβ): 0.19 nM | Kd (Human SIRPγ): 0.73 nM
B1: Anti-SIRP-α antibody 135, light chain Mut, heavy chain Mut (antibody, V domains shown)
VH: EVQLVESGGGVVQPGGSLRLSCAASGFSFSIYAVSWVRQAPGKGLEWVSTIGADDTYYADSVKGRFTISRDNSKNTLYLQMNSLRAEDTAVYYCAKDSTVGWSGDFFDYWGQGTLVTVSS
VL: EIVLTQSPATLSVSPGERVTLSCRASQNVRSDIAWYQQKPGQAPRLLIYAASSRDTGIPARFSGSGSGTDFTLTISSLQSEDFGVYYCQQYYDWPPFTFGGGTKVEIK
notes: Whole antibody
binding result (SIRP-α mouse BL6): no binding (tested: 100 nM (highest analyte concentration))
